The text below walks through data of PMC5469197, “ANGUSTIFOLIA, a Plant Homolog of CtBP/BARS Localizes to Stress Granules and Regulates Their Formation” (Frontiers in Plant Science, 2017).

Common to all, as to experiment: co-IP; LUMIER in HEK293TN cells: Prot-A fusion co-transfected with Renilla luciferase fusion (AN always the luciferase fusion with the interactors); luciferase activity before (input) and after pulldown; percentage pulldown = pulldown/input x 100; empty vectors as negative control; positive if more than two times the background
Test [1] has as its target PROTEIN KINASE SU… PROTEIN (AIK1), Prot-A fusion (Arabidopsis thaliana).
The target in test [2] is T1, TANDEM ZINC FINGER 3 (TZF3), Prot-A fusion (Arabidopsis thaliana, UniProt Q9M0G2 1-356).
T1 construct: Tandem zinc finger 3, Arabidopsis thaliana, AT4G29190; CDS amplified from Col-0 cDNA; source: HEK293TN cells, transfected; not shown: Protein A (Staphylococcus aureus), N-terminal, kept
T1 sequence (looked up): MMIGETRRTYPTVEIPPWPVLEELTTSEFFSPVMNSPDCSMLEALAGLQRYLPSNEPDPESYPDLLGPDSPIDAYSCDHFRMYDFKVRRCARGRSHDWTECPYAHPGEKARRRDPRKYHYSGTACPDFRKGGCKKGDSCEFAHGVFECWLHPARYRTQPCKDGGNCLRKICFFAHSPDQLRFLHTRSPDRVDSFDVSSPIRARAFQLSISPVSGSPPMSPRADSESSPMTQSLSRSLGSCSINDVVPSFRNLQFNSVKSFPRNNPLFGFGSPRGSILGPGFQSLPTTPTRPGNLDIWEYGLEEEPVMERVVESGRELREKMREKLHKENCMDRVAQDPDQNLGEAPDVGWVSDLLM
Particulars: partners not purified.

Test [3] has as its target T2, GLYCINE-RICH RNA-BINDING PROTEIN 2 (GRP2), Prot-A fusion (Arabidopsis thaliana, UniProt Q9SVM8 35-158).
T2 construct: CDS amplified from Col-0 cDNA; source: HEK293TN cells, transfected; not shown: Protein A (Staphylococcus aureus), N-terminal, kept
T2 sequence (looked up): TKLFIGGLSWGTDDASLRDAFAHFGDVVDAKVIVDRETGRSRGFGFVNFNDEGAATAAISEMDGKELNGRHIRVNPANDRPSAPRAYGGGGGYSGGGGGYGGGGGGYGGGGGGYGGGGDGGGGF
The conditions noted are these: partners not purified.

Test [4] deals with T3, TANDEM CCCH ZINC FINGER (TZF) ATC3H14, Prot-A fusion (Arabidopsis thaliana, UniProt Q9C9N3 1-310).
T3 construct: Tandem CCCH zinc finger protein ATC3H14, Arabidopsis thaliana, AT1G66810; CDS amplified from Col-0 cDNA; source: HEK293TN cells, transfected; not shown: Protein A (Staphylococcus aureus), N-terminal, kept
T3 sequence (looked up): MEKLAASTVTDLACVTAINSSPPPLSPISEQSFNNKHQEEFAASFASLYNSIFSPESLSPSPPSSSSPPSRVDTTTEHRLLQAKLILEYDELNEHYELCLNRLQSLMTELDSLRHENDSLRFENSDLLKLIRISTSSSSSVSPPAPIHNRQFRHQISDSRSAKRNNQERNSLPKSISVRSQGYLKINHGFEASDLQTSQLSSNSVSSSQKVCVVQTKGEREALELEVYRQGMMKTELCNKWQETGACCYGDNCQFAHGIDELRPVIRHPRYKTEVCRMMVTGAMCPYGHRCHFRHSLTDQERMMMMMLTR
Particulars: partners not purified.

Test [5] has as its target T4, EIF (ISO) 4E, Prot-A fusion (Arabidopsis thaliana, UniProt O04663 1-198).
T4 construct: EIF(iso)4E, Arabidopsis thaliana, AT5G35620; CDS amplified from Col-0 cDNA; source: HEK293TN cells, transfected; not shown: Protein A (Staphylococcus aureus), N-terminal, kept
T4 sequence (looked up): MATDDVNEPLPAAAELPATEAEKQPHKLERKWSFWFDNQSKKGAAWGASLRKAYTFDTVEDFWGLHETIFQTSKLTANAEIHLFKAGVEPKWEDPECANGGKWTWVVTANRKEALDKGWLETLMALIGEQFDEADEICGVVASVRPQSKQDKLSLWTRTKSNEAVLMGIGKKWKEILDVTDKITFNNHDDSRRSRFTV
Particulars: partners not purified.

The target in test [6] is T5, EUKARYOTIC INITIATION FACTOR 4E1 (EIF4E1), Prot-A fusion (Arabidopsis thaliana, UniProt O23252 1-235).
T5 construct: Eukaryotic initiation factor 4E1, Arabidopsis thaliana, AT4G18040; CDS amplified from Col-0 cDNA; source: HEK293TN cells, transfected; not shown: Protein A (Staphylococcus aureus), N-terminal, kept
T5 sequence (looked up): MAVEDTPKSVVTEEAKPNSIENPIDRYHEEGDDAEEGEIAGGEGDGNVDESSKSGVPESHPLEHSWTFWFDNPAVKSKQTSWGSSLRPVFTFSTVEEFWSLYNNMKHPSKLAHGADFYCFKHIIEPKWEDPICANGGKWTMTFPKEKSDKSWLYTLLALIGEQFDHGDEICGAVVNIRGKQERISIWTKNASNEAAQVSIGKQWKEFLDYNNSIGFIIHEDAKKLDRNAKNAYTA
Particulars: partners not purified.

Sequence of PROTEIN KINASE SU… PROTEIN (AIK1), Prot-A fusion (Arabidopsis thaliana) (main, as listed by the source): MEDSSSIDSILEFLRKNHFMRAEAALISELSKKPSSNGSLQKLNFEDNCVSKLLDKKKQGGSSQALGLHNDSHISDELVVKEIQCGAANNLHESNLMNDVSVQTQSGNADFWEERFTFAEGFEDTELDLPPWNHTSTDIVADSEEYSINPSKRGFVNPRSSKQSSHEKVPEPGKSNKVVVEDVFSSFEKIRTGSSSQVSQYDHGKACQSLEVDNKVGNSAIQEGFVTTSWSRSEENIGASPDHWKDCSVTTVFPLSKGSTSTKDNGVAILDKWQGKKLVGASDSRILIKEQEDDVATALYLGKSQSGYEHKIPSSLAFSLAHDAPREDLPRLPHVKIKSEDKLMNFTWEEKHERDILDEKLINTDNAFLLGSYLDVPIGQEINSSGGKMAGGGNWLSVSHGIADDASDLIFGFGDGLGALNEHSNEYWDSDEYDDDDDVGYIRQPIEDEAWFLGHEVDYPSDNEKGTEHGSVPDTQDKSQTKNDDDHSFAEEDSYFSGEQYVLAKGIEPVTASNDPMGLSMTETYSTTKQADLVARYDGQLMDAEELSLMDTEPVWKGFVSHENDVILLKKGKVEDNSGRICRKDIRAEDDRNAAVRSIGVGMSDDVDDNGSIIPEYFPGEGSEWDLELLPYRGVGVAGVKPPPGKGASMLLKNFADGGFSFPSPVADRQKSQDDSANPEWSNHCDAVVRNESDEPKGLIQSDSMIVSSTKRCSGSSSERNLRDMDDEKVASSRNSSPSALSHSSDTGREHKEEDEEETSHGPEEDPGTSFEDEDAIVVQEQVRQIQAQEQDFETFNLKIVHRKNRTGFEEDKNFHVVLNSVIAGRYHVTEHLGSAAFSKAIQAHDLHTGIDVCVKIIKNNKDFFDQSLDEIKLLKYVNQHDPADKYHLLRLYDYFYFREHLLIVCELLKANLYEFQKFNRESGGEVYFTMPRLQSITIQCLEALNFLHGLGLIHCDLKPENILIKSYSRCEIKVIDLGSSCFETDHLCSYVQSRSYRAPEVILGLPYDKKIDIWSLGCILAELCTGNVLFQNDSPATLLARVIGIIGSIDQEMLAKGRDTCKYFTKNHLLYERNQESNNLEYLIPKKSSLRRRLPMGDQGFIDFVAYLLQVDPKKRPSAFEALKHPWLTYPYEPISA

B1: AN, Renilla luciferase fusion (LUMIER) (natural protein, Arabidopsis thaliana, UniProt O23702 1-636, looked up)
chain: MSKIRSSATMPHRDQPSPASPHVVTLNCIEDCALEQDSLAGVAGVEYVPLSRIADGKIESATAVLLHSLAYLPRAAQRRLRPHQLILCLGSADRAVDSTLAADLGLRLVHVDTSRAEEIADTVMALILGLLRRTHLLSRHALSASGWLGSLQPLCRGMRRCRGMVLGIVGRSVSARYLASRSLAFKMSVLYFDVPEGDEERIRPSRFPRAARRMDTLNDLLAASDVISLHCALTNDTVQILNAECLQHIKPGAFLVNTGSCQLLDDCAVKQLLIDGTIAGCALDGAEGPQWMEAWVKEMPNVLILPRSADYSEEVWMEIREKAISILHSFFLDGVIPSNTVSDEEVEESEASEEEEQSPSKHEKLAIVESTSRQQGESTLTSTEIVRREASELKESLSPGQQHVSQNTAVKPEGRRSRSGKKAKKRHSQQKYMQKTDGSSGLNEESTSRRDDIAMSDTEEVLSSSSRCASPEDSRSRKTPLEVMQESSPNQLVMSSKKFIGKSSELLKDGYVVALYAKDLSGLHVSRQRTKNGGWFLDTLSNVSKRDPAAQFIIAYRNKDTVGLRSFAAGGKLLQINRRMEFVFASHSFDVWESWSLEGSLDECRLVNCRNSSAVLDVRVEILAMVGDDGITRWID
notes: ANGUSTIFOLIA (AN), Arabidopsis thaliana, AT1G01510; CDS amplified from Col-0 cDNA; in the dimerisation test the second copy must have been the N-terminal protein A fusion (surmised from the LUMIER format); also called wild-type AN; source: HEK293TN cells, transfected; not shown: Renilla reniformis luciferase, N-terminal, kept
Consider B1, for which the fold change from background in test [1] came to 223 fold; in test [2] it was 5.25 fold; in test [3] it was 2.52 fold; in test [4], 4.92 fold; in test [5], 4.09 fold; in test [6], 2.83 fold. Moreover, the percentage pulldown in test [1] was 36%; in test [2], 0.5%; in test [3], 0.24%; in test [4] it was 0.47%; in test [5] it was 0.39%; in test [6], 0.27%.
